Here are results for 21 sequences from the DeepSol protein solubility set.

The nature of this data set: soluble on expression in E. coli; label from the status in PepcDB or PDB records.
“AHHHHHHGSTIKAPTLNVPGLGVDPLTQRIKEKEKKWKYKIAVLSGKGGVGKSTVAVNLTAALAKMGYFVGILDADIHGPNVAKMFGIGNTDIYAEKFEDGHFEMIPPTVDFMGQVTPIKVMSMGMMVPEDQPIIWRGSLVTKAIKQLLGDVMWGELDFMIIDFPPGTGDEILTVVQSIQLDAAIVVTTPQEVALLDTGKAVNMMKKMEVPYIAVIENMSYLICPHCGNKIDIFGEGGGEKLAEKEGVDFLGKVPIDLKAREASDLGIPIVLYGDTPAAKAFMEIAEKLVNKLKEIKGDGREK”: the “soluble on expression in E. coli” value is reported as “not soluble”.
For the sequence “MSLMPFHLAIPVHDLPAARRFYGEVFGLSEGRSAEHWVDFDFFGHQLVIHQHPQTDSQRHAGSNPVDGHDVPVPHFGVVLAWDDWHALAERLQQRGTRFVIEPYIRFKGQVGEQATLFLFDPCGNALEFKSFRDMGQLFAKLEHHHHHH”, the “soluble on expression in E. coli” value is reported as “soluble”.
Then “MAHHHHHHMHSAIRFSGSSSRSTSSSMEVASAAAEPPLSVSSIPRRRSADRDDALSLLEPAVRLPTSTTSKASALSQSSLRSGSHPSAAVYGDNPGSAHTASSSYTRKGDNGDALLHQPPGNPQTRVPSSFAATVNTRASEASSHSARGRAGSSRRDNLDPAAPQSRTATQPPLTHPGSVFANIPWIPPPPIYGTPLPDSSNMNRHYAYYYDPRGATLRAPFCYPDEVPLRAQEHHSDVSGAEWPKPSDLPLPSVFPMPPHVLPQLSLPAVSAPTAEAAARGMVAAPHAWAIPPPVLYPPPPPPPWWFYGTHPLPLPASSSGSSASSTGSSRHASSSSPVSARSTTRPSRHPSANAARPHAEAAAPSRHGVAVPAGSVETPVAAASRGDAGGGHAAKKPSVASSGSRYAAGHTVGTGRAARRSMGSLSASSATTSPWSATTTTAHSDLPQRVERRVYASSGSGSSEMQRSATGQTVQVAPRRTNVAQCVPPDQLQVYGDDVVQERGYSSVMTRMKHAVSAAEAYLEKMEHLYRRLRSRYEEVVMSPGKVTRYGADITADEGVEEKRHRRTAPAATTRATRGPPEKGLLHPPERPFSRQTHLQPTAPLPHAERPVSPALSAAQPSAVEPSPPLSSSSSATSATSLRRELHLLESQWQRLEELKRHGGGGTTTAVSMPAALSPSTATSTAGEDPFTNRRFLQLIKDRKHLLTSAT”, with “not soluble”.
Then “MSTPFKMERGVKYRDAAKTSIIPVKNIDPNQDLLKKPEWMKIKLPASSAKIESIKNGMRRHGLHSVCEEASCPNLHECFNHGTATFMILGAICTRRCPFCDVAHGKPLPPDPEEPQKLAETIQDMKLKYVVITSVDRDDLPDRGAGHFSECVKAVRELNPNIKIEILVPDFRGRITQALEKLKDNPPDVFNHNLENVPRLYKEIRPGADYEWSLKLLREFKEIFPNIPTKSGLMVGLGETNEEILQVMQDLRDNGVTMLTLGQYLQPSRHHLPVARYVPPTEFDEFRDKANEMGFEHAACGPFVRSSYHADLQASGGLVKLEHHHHHH”, with “not soluble”; and “MTTEKINLLDFDRKGLRTFFAEELGEKAFRAEQVMKWIYHFGCDDFDQMNNINKQLREKLKAKCEIRAPYVSEAQHSADGTIKWAMRVGDQDVETVYIPEDDRATLCVSSQVGCALECKFCSTAQQGFNRNLRVSEIIGQVWRAAREIGLEKETGRRPITNVVMMGMGEPLLNMKNLIPALEIMLDDLGFGLSKRRVTVSTSGVVSGLEQMIGQIDVALAISLHAPNDKLRSEIMPINDRWNIEAFLEVVRRYIASSNANRGKVTVEYVLLDHVNDGTEHAHELAELLKGTPCKINLIPFNPYPGSPYKKPSNSRIDRFQKTLMQYEHTVTIRKTRGDDIDAACGQLVGDVIDRTKRTKAKQFDGQAIPVKTL”, with “not soluble”.
Take “MGSDKIHHHHHHMHSLQRKVLRTICPDQKGLIARITNICYKHELNIVQNNEFVDHRTGRFFMRTELEGIFNDSTLLADLDSALPEGSVRELNPAGRRRIVILVTKEAHCLGDLLMKANYGGLDVEIAAVIGNHDTLRSLVERFDIPFELVSHEGLTRNEHDQKMADAIDAYQPDYVVLAKYMRVLTPEFVARFPNKIINIHHSFLPAFIGARPYHQAYERGVKIIGATAHYVNDNLDEGPIIMQDVIHVDHTYTAEDMMRAGRDVEKNVLSRALYKVLAQRVFVYGNRTIIL”: the “soluble on expression in E. coli” value is “not soluble”.
Take “QRRLEVKGVVNNITVYDDFAHHPTAITATIDALRAKVGQQRILAVLEPRSNTMKMGVHKHELATSLQDADSVFIYQPPTIEWQVSEVLANLAQPAISADDVDELVMRIVQQAKPNDHILIMSNGAFGGIHQKLLTALANAFLMPS”: the “soluble on expression in E. coli” value is on record as “not soluble”.
Then “GSHGRSRFVKKDGHCNVQFINVGEKRNETLVFSHNAVIAMRDGKLCLMWRVGNLQKSHLVEAHVRAQLLKSRITSEGEYIPLDQIDINVGFDSGIDRIFLVSPITIVHEIDEDSPLYDLSKQDIDNADFEIVVILEGMVEATAMTKQCRSSYLANEILWGHRYEPVLFEEKHYYKVDYSRFHKTYEVPNTPLCSARDLAEKKYILSNA”, with “soluble”.
For the sequence “MSLSLPRWKQIVHMLYLKMEFISGGELGEALAVNPRTIRNDIKVINQILMIGGNRIESLPGVGYRLVIGDEKALREALLDDSIGRANMNIVPMFAEDRADYIIRYLLLKNDYVKLETLSEELFVSKSTINLDILEVKRKLKENELKVEKRAGYGIRITGAELAIRFCFSRYLLVESTSPLITETEINFFGEVNLEMMEQIVVSNIAKYNIHMTDISVKNLIIHIAIAVCRVKDNCYVPATDLEDIEFSMPELRAAQGIIKEIDLSEGIRFPESETAYLLLHLSSKNRKSDFNNYREYIIVDKMLEKIKELYGYDFKQDQKMISNIALHLKPAINRIKFNMNIQNPYLKNLKANYPLAFELGLVAKEVLEQELKTNVDEAEVGYLAIHFLYGLDKEEGHHHHHH”, the “soluble on expression in E. coli” value is “soluble”.
“MGPTQETYTIVRYQSGTFSKQLDEIVTESPITIKLNGEEYVTVVCTPNYIEDMVIGFLISEGIISSYNDVEELWVQKDNGIVHVKSSKVNPLYQTLYNKRYVTSCCGKGRQGFIFVNDAAKAKDLHDIHVKITPEECFYLMNTLQQSSTTFRQTGGVHNTALCDRNKILLSRMDIGRHNALDKIYGHCLRNDISVKGKIIAFSGRISSEILLKVSKIGCEIVLSKSAPTKLALQLAHDLGITVVGFIRNESCNIYTHPHRIDGYQSNNLEHHHHHH”: the “soluble on expression in E. coli” value is given as “soluble”.
For the sequence “MFTIKKATTNDIQLINEMAQIVFPATYREILSKEQLDYMMDWMYSPKNLRKQMEEEGHIYYIAYKDGEAAGYVSIQPEGEHLFHLQKIYVLPLFQGCRLGKALFEQAVKAIKEIHPGPCEMHLNVNRNNKALQFYQHLGMEKVAEGDFHIGNGYYMNDYIMGLKI”, the “soluble on expression in E. coli” value was “not soluble”.
Then “MTYKELATFLKVLSDSSRLEILDLLSCGELCACDLLAHFQFSQPTLSYHMKALVKTNLVTTRKIGNKHLYQLNHNIFESVINNLSKVHTSNQRCICHNLKTGEC”, with “not soluble”; and “MSLAEQIEFDQAHLTLQEITEALDNGRFVHVRRQLQDMEPEDIAHLLEASPRKAREVLWQLTDPEDYGEILDELNEDVKDALVSKMAPEKLAEATEGMDIDDVAYVLRSLPDDVSREVLSQMDAADRMRVETALSYPEDTAGGLMNTDVITIRADVDVDVVLRYLRMKGELPEATDALYVIDDESKLIGHLSLVTLLTTQPDVPVSEVMDDADEAIKVDMKDSDIANLFERRNWVSAPVVDENQHLVGRITIDDVVDIIREDAEHSMMSMAGMDDDEDTFAPEGHHHHHH”, with “soluble”; and “MAHHHHHHMSEGKRATSAAPEAKYNAYAEAADPDRYRVADALLFTCAEHGKACVLCVTAGKNGRSGRTAAVGATLFWLTCPNLNAIIARFEGHRCVQAVSAAMAQQPCLCDWHVQSHDVYASRAKDLLSPAQWCFFESHFLSDEQPSLHKYGNAAVSHASDMKCLHALVAQTLAGVANPVGSVVVNYILLQHKLVCEAADTGNTEQQGVEEKRLLMKATLNSTRLFSDFTTAFVRAASERPREDWHALHNVSFEVPLPEGNMWCKTAVQYMWQVDSQLAALCPDLCARALTVHVALGGPSRRRHKKHRMN”, with “not soluble”.
The entry for “AHHHHHHGSIDLILLAGKLKRIPRMGWLIKGVPNPESVADHSYRVAFITLLLAEELKKKGVEIDVEKALKIAIIHDLGEAIITDLPLSAQKYLNKEEAEAKALKDVLPEYTELFEEYSKALTLEGQLVKIADKLDMIIQAYEYELSGAKNLSEFWNALEDLEKLEISRYLREIIEEVRRLKDDH” is “soluble”; for “MKTYRIRKPKIVVVGGGTGLPVILKSLRNQSVDITAVVTVADDGGSSGELRSSINNMTPPGDLRNVLVALSDMPQLYEDIFQYRFDKSDSHFANHAIGNLIIAAVSEMRGSTYEAIQLLSKMMHVDGRIYPSSERPLTLHAVFKDGSVAVGESKIALDRKTIDHVFVTNTHGEEQPRAARKVVKAIEEADMVVLGPGSLFTSILPNLVITEIGEAIKQTAAEVVYICNIMTQKGETEHFTDADHVRVLNEHLQAQFVDTVLVNTEKVPENYMDPEIYDEYLVQVKHDFQGLREEGCRVISTDFLELRDGGVFHDGEKVVEELFRIVFGTKYLEHHHHHH” it is “soluble”.
As for “MAHHHHHHMEPNADEPKKTSSVRQLLRQQRELQEMRKFGLAPLAVDTETHQEISPNIPEFISRAPWYYGATGPTLVHQRKQGDSATEVSDEVLDEKVDRIVVKGQASRFTAGACKNCGSRTHKTSECFQAKKKVGSVYTNRVTGSDIETHQEAKTYSQKRDRFVGEVGIDLMRGVRQDQQDDNVDVAAPATARHRPEDVFGSRTAQHGGVEVKELPKYLHNLDQQDGLFFDPKTGSMRANPNSGDSTKAFRGDLERYRTGDYYNYVESQYRFLTGQSRSFVDFEFDDAMRRAREQQQEPQQQEQNSTRGPVTKVLTETPQDVLLRSLYGASQPKFDSDVLPSFTTESKTSAPSSSPAPPVDALATTATATVTAHSSVQAASLSWVTTRNGHAAVYGSYFDPIHFRWGYACCKRMGKDTTGCSATHA”, the “soluble on expression in E. coli” value is recorded as “soluble”.
Then “MAHHHHHHMVEEVTIGRDFVTVRRVDDDDTAAAVRQYAVRLGGNPTATPEETAERSAALQRKVMDAMEENCEQVKTLSGRNDPNESVDGGGENTEDNLGSQGGVALDSVDEAALRDLVRSTHWSELKLHVSALLTDHLYSGRAHIDADAPHPHPDTIPQDGDSEVVVVLKELISTTIRPQLQADGGDIRFVGLADSVMLVEMLGACRKCRSSKTTLRDMIERTTRHWVPEVQKVEEVER”, with “not soluble”; and “MGHHHHHHSHMKYYRRALYDKFVHFYLVISDDGSSEAQLRGKMGGLVRKARKKISPDWPKEEQIHQLLQLFYGDWGFHCDPEDYFYARNLYLPYVFEHRQGMPVTLGAMVFYLAEALDLPIYPVNFPTQLILRAEVRDEVAFIDPWDGTYISQEKLQQLYEGAFGFGAKIQPEELDRADLSLLYSRFEQLAKNALIREEHNDMAYHYIKNLMITDAENPYHIRDRGLVLAQMGAYPSALKDLEFFVEHCPKDPTAAFIRTQLLELKGEINKDTFPLH”, with “soluble”.
Take “MAEKLSAHCHCGAVAFTVELSDGFNTVRRCNCSYCRMRGAVAVSSPRSGIEVVRGGDKLTEYRFNTGEAVHFFCSVCGIYTFHQRRSNPQQYGVNVACIDGVSPFDFP”: the “soluble on expression in E. coli” value was “not soluble”.
Consider “MKINWTEVKEKIRPQISKPSYETWFTNTTVYLEDDILTIYCPNEFARDWLESHYKELVFNTLREMFNTTFEIQFDLCNGEPSNLKDVQKEKLSSWDEVKKALRPKIAEKTFMTWIRNTNATIKDNKVIIFCEDAFHRDLLEGEYKNIISSTVQKITDEEYQIWFEIESSATSNAQVHHVKNNQRTSGQEESKTIWNKIKDKIQLKISRPSYETWVKETTARINEDSLIIYFENEFQQEWVKKSYKDLISQIAKELTGNTYEIQFELKSNTTSNNEKSTIKDITSELGEQFKVSNNSLKYNDVDESNKRIRALEEKIMNLEKVIGTLVEKLDAVELKTQLEKLEHHHHHH”, for which the “soluble on expression in E. coli” value was “not soluble”.
